The nanobody polyreactivity screen of Harvey et al. (2022)

Assay: yeast display, Sf9 membrane polyspecificity reagent, FACS + sequencing; frameworks hold sequencing errors
Procedure, shortened: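 Genes from sorted yeast were amplified by colony PCR, read by MiSeq 2 × 250 sequencing and filtered on CDR length. These cells carried a synthetic nanobody library in Saccharomyces cerevisiae BJ5465 and were sorted by FACS into low and high (top ~1%) gates on anti-HA and streptavidin fluorescence. Polyreactivity is labelled according to the gate of origin.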

Row | Sequence | polyreactivity (PSR sort gate)
1 | QVQLVESGGGLVQAGGSLRLSCAASGYIFVYNAMGWYRQAPGKERELVAAITDGGGSTYADSVKGRFTISRDNAKNTVYLQMNSLNPEDTAVYYCAARYSDTTWYVLYYYWGQGTQVTVSS | low polyreactivity
2 | QDQLEESGGGLLQARGSLRLSCAASGSIFTCNGRGWYRQAPGKERELVAAISNGASTNYADSVKGRFTISRDNAKNSVYLQMNSLKPEDTAVYYCAAKSTGRYDYWGQGTQGTVSS | low polyreactivity
3 | QVQLVESGGGLVQAGGSLRLSCAASGSTLRFYAMGWYRPAPGKERELVAAISSSGSSTYYADSVKGRFTISRDNAKNTVYLQLNSLKPEDTAVYYCSGYGYWGQGTQVTVSS | high polyreactivity
4 | QVQLVESGGCLVQEGGSLRLSCAASGITFYLYAMGWYSQGPGKERELVATISRSGGSTYADSVKGRFTISRDNAKNNVYLQRNSLKPEDTAVDYCNADGWYGYWGQGTQVTVSS | low polyreactivity
5 | QVQLVESGGGLVQAGGSLRLSCAASGIIFDDYAMGWYRQAPGKERELVAAISVSGGSTYYADSVKGRFTISRDNAKNTVYLQMNSLKPEDTAVYYCAARLIVGRFLRYDYWGQGTQVSVSS | high polyreactivity
6 | QVQLVESGGGIVQAGGSLRLTCAASGRIFIYYYMGWYRQAPGKERELVADITLSGGSTYYADSVKGRFTISRDNAKNNVYLQMTSLKPEDTAVYYCAATRRYWKIFFGDGDYWGQATQVTVSS | high polyreactivity
7 | QVQLVESGGGLVQAGGSLSLSCAASGRTFANYAMGWYRHAPGKETEFVAVITYSGGNTYYADSVKGRFTISRDNAKNTVYLQMNSLKPEDTAVYYCAKGRPYRNGLYYYWGQGTQVTVSS | high polyreactivity
8 | QVHLVESGGGLVKAGGSLRLSCAASGSTFYANAMGWYRQAPGKEREFVASITWSGGSTYYADSVKGRFTISRDNAKNTVYLQMNSLKPEDTSVYYCAANIGHNGFDYWGQGTQVNVSS | low polyreactivity
9 | QVQLLESGGGLVQAGGSLRLSCAASGLTFGWYAMGWYRQAPGKERELVAAITWNSGSTYYADSVKGRFTISRDNAKNTVYLQMNSLKPVDTAVYYCAAGYQDSQEYDYWGQGTQVTVSS | low polyreactivity
10 | QVQLVESGGGLVQAGGSLRLSCAASGNTFPSYVMGWYRQAPGKERELVAAINRGGGTYYADSVKGRFTISRDNAKNTVYLQMNSLKPEVTAVYYCAVRDQRHPYMDYWGQGTQVTVSA | low polyreactivity
11 | QVQLVESGGGLVQAGGSLRLSCAASGFIFDSYAMGWYRQAPGKERELVATITKGGGRTYYADSVKGRFTISRDNAKNTVYLQMNSLKPEDTAVYYCNARGFSRRKGLDYWGQGTQVTVSS | low polyreactivity
12 | QVQLVESGGGLVQAGGSLRLSCAASGRILRFYAMGWYRQAPGKERELVATISRSGGSTYYADSVKGRFTISRDNAKNTVYLQMNSLKPEDTAVYYCNAFLYARQRDRWARYDYWGQGTQVTVSS | high polyreactivity
13 | QVQLVESGGGLVQAGGSLRLSCAASGSTFGYYAMGWYRQAPGKERELVASISSRGGSTYYADSVKGRFTISRDNAKNTVYLQMNSLKPEDTAVYSCAARYGGFPVPGRYNYWGQGTQVTVSS | high polyreactivity
14 | QVQLVESGGRLVQAGGSLRLSCAPSGRIFQPNVMGWSRQAPGKERELVAAIRSGSSTYYADSVKGRFTISRDNAKYSVYLQMNSLKPEDTAVYYCAARLFLPGYTRVNYLGQGTQVTVSS | high polyreactivity
15 | QVQLVESGAGLVQAGGSLRLSCAASGLILGVYTMGWYRQAPGTEREFVASINYGGGSTYYADSVKGRFTISRDNAKNTVYLQMNSLKPEDTAVYYCNARSRWGGTRLYSYDYWGQGTKVTVSS | low polyreactivity
16 | QVQLVESGGGLVQAGGSLRLSCAASGRTFPHYAMGWYRQAPGKVRELVAAISSRGGSTYYADSVKGRFTISRDNVKNTVYLQMNSLKPEDTAVYYCAATVGLYRSREYGYWGQGTQVTVSS | low polyreactivity
17 | QVQLVESGGGLVQAGGSLRLSCAASGITFWDYAMGWYRQAPGKERELVAGISTRGGSTYYADSVKGRFTISRDNEKNTVYLQMNSLKPEDTAVYYCATDDPLSQINEQGMDYWGQGTQVTVSS | low polyreactivity
18 | QVQLVESGGGLVQAGGRLRLSCAASGYTFRRNAMGWYRQAPGKERELVAAITWRGTSTYYADSVKGRFTISRDNAKNTVYLQMNSLKPEDTAVYYCAARFYSGPGGYTMYYWGQGTQVTVSS | high polyreactivity
19 | QVQLVESGGGLVQAGGSLRLSCAASGFTFINYAMGWYRQAPGKERELVAAISRRGGSTYYADSVKGRFTISRDNAKNTVYLQMNSLKPEDTAVYYCAARGYSYNYDYWGQGTQVTVSS | high polyreactivity
20 | QVQLVESGGGLVQAGGSLRLSCAASGFIFYDYMGWYRQAPGKERELVAVISYSGSSTYYADSVKGRFTISRDNAKNTVYLQMNSLKPEDTAVYYCAARNVNGWDYDYWGQGTQVTVSS | low polyreactivity
21 | QVQLVESGGGLVQAGGSLRLSCAASGRTFRFYAMGCYRQAPGKERELVAAINYGGGNTYYADSVKGRFTISRDNAKNTVYLQMNILKPEDTAVYYCAAQYYYRARWFPYDYWGQGTQVTVSS | high polyreactivity

Row | Sequence | polyreactivity (PSR sort gate)
22 | QVQLVESGGGLVQAGGSLRLTCAASGRTFRTYAMGWYRQAPGKERELVAAITSGGNTYYADSVKGRFTISRDNAKNTVYLQMNSLKPEDTAVYYCAAVQYFKVSYWGQGTQVTVSS | high polyreactivity
23 | QVQLVESGGGLVQAGGSLRLSCAASGSIFEVNAMGLYRQAPGKERELVAAISCSGGSTYYADSVKGRFTISRDNAKNTVYLQMNSLKPEDTAVYYCAADWRQGLWYGYYYWGQGTQVTVSS | low polyreactivity
24 | QVQHVESGGGLVQAGGSLRLSCAASGSTFDAYAMGWYRQAPGKERELVAAISWSDTTTYYADSVKGRFTISRDTAKNTVYLQMYSLKPEDTAVSYCADEYYFTDGSYTSDYWGPGTQVTVSS | high polyreactivity
25 | QVQLVESGGGLVQAGGSLRLSCAASGSTFPGYAMGWYRQAPGKERELVAAINWRGDSTYYADSVKGRFTISRDNAKNTVYLEMNSLKPEDPAVYFCNTVWGSPSRSSAYDYWGQGTQVTVSS | high polyreactivity
26 | QVQLVESGGGLVQAVGSLRLICDASGRIFYGYAMGWYRQAPGTERELVAANTYIGGTYYADSVKGRFTISRDNAKNTVDFLMNSVKPEDTSVYYWATEPFYNYGYFTYPYWYDYWGQGSQVTVSS | low polyreactivity
27 | QVQLVESGGGLVQAGGSLRLSCAASGSTFFSNAMGWYRQAPGKERELVATIRFGGGSTYADSVKGRFTISRDNAKNTVYLQMNSLIPEDTAVYYCAADDSDKRYTRSWYGYWGQGTQVTVSS | low polyreactivity
28 | QVQLVESGGGLVQAGGSLSLRCAASGRTVGSYAMVWYRQAPGKERELVAVINGDGSTYYADSVKGRFTISRDNAKNTVYFQMNSLKPVDTAVYYCNNVSFYLGTRRVSLKHYYWGQGTQVTLSS | low polyreactivity
29 | QVQLVESWEGLVQAGGRLRLSCAASGSIFRPYTMGWYRQAPGKERELVATISSTGITNYADSVKGRFTISRDNAKITVYLQMNSLKPEVTAVYYCAAGLWFSYDYWGQGTQVTVSS | high polyreactivity
30 | QVQLVESGGGLVHAGGSLRLSCAASGFIFSYNARGWYRQAPGKERELVASISRADSTNYADSVKGRFTISRDNAKNTVYLQMNSLKPEDTAVYYCAAAYWPVVWFYYWGQGTQVTVSS | low polyreactivity
31 | QVQLVESGGGLVQAGGSLRLSCAASGSTFWYYVMGWYRQAPGKERELVAAISIVGSTYYADSVKGRFTISRDNAKNTVYLQMNSLKPEDTAVYYFNAGYFRGSNAIKVRLTYDHWGQGTQVTVSS | low polyreactivity
32 | QVQLVESGGGLVQAGGSLRLSCAASGINYSRYAMGWYRQAPGKERELVAAISSGGSTNYADSVKGRFTISRDNAKNTVYLQMNSLKPEDTAVYYCAAETRLHRQDYDYWGQGTQVTVSS | low polyreactivity
33 | QVQLVESGGGLVQAGGSLRLSCAASGRIFSGYAMGWYRQAPGKERELVAAITSGASTNYADSVKGRFTISRDNAKNTVYLQMNSLKPEDTAVYYCNKKRTADYDYWGQGTQVTVSS | low polyreactivity
34 | QVQLVESGGGLVQAGGSLRLSCAASGITFRYYAMGWYRQAPGKERELVAVISTSGGSTYYADSVKGRFTISRDNAKNTVFLQMNSLKPEDTAVYYCAVVWPYYERYYYWGQGTQVTVSS | high polyreactivity
35 | QVQLVESGGGLVQAGGSLRLSCAASGSIFATNAMGWYRQAPGKERELVAAISRSGASTYYADSVKGRFTISRDNAKNTVYLQMNSLKPEDPAVYYCNKVLYRDAYHSYGFDYWGQGTQVTVSS | high polyreactivity
36 | QVQLVESGGGLVQAGGSLRLSCAASGRIFRGYAMGWYRQAPGKERELVATINASGGTTYYADSVKGRFTISRDNAKNTVYLQMNSLKPEDTAVYYCNARYRRFFSGYGYWGQGTQVTVSS | high polyreactivity
37 | QVQLVESGGGLVQAGGSLRLSCAASGFNFDGNALGWYRPAPGKERELVAAIRSGGRTNYADSVKGRFTISRDNAKNTVYLQMNSLKPEDTAVYYCAARSIYPYYYRRDNRYYYWGQGTQVTVSS | high polyreactivity
38 | QVQLVESGGGLVQAGGSLRLSCAASGIISYYYAMGWYRQAPGKERELVAAISSSGNTYYADSVKGRFTISRDNAKNTVYLQMNSLKPEDTAVYYCAAESYGYYAADDDNYLTWYDYWGQGTQVTVSS | high polyreactivity
39 | QVQLVESGGGLVQAGGSLRLSCAASGSTFRYNVMGWYRQAPGKERDLVAAITRRGSRTYYADSVKGRFTISRDNAKNTVYLQMNSLKPEDTAVYYCNKYSLSVPANDDYWGQGSQVTVSS | high polyreactivity
40 | QVQIVESGGVLVQAGGSLRLSCAASGRIFGSYAMGWYRQAPGKERELVAGIRSVGSTNYADSVKGRFTISRDNEKNTVYLQMNSLKPEDTAVYYCAACLWHPTFGYWGQGTQVTVSS | low polyreactivity
41 | QVQLVESGGGLDQAGGSLRLSCAASGSIFGYAMGWYRQAPGKERELVAAIRWGGGSTYYADSVKGRFTISRDNAKKTVYLQMNSLKPEDTAVYYCAARYYRPGVLANYYWGQGTQVTVSS | high polyreactivity
